Consider seven molecules from patent publication US20210246166A1 (Bayer, published 2021).

B1: Example 225: (Orn)-IC+SRSLPP-(Chg)-C+IPD-OH (peptide)
peptide: [Orn]ICSRSLPP[Chg]CIPD-OH
modifications: disulfide 3-11; N-terminus assumed
SMILES: CC[C@H](C)[C@H](NC(=O)[C@@H](N)CCCN)C(=O)N[C@H]1CSSC[C@@H](C(=O)N[C@H](C(=O)N2CCC[C@H]2C(=O)N[C@@H](CC(=O)O)C(=O)O)[C@@H](C)CC)NC(=O)[C@H](C2CCCCC2)NC(=O)[C@@H]2CCCN2C(=O)[C@@H]2CCCN2C(=O)[C@H](CC(C)C)NC(=O)[C@H](CO)NC(=O)[C@H](CCCNC(=N)N)NC(=O)[C@H](CO)NC1=O
B2: Example 231: AIC+SRS-((tBu)A)-P-(Oic)-I-((N-Me)C)+IPD-OH (peptide)
peptide: AICSRS[tBuAla]P[Oic]I[NMeC]IPD-OH
modifications: disulfide 3-11; N-terminus assumed
SMILES: CC[C@H](C)[C@H](NC(=O)[C@H](C)N)C(=O)N[C@H]1CSSC[C@@H](C(=O)N[C@H](C(=O)N2CCC[C@H]2C(=O)N[C@@H](CC(=O)O)C(=O)O)[C@@H](C)CC)N(C)C(=O)[C@H]([C@@H](C)CC)NC(=O)[C@@H]2C[C@@H]3CCCC[C@@H]3N2C(=O)[C@@H]2CCCN2C(=O)[C@H](CC(C)(C)C)NC(=O)[C@H](CO)NC(=O)[C@H](CCCNC(=N)N)NC(=O)[C@H](CO)NC1=O
B3: Example 238: AIC+SRS-((2-Chloro)F)-PPI-((N-Me)C)+IPD-NH2 (peptide)
peptide: AICSRS[Phe(2-Cl)]PPI[NMeC]IPD-NH2
modifications: disulfide 3-11; N-terminus assumed
SMILES: CC[C@H](C)[C@H](NC(=O)[C@H](C)N)C(=O)N[C@H]1CSSC[C@@H](C(=O)N[C@H](C(=O)N2CCC[C@H]2C(=O)N[C@@H](CC(=O)O)C(N)=O)[C@@H](C)CC)N(C)C(=O)[C@H]([C@@H](C)CC)NC(=O)[C@@H]2CCCN2C(=O)[C@@H]2CCCN2C(=O)[C@H](Cc2ccccc2Cl)NC(=O)[C@H](CO)NC(=O)[C@H](CCCNC(=N)N)NC(=O)[C@H](CO)NC1=O
B4: Example 234: AIC+SRS-((tBu)A)-P-(Oic)-I-C+IPD-NH2 (peptide)
peptide: AICSRS[tBuAla]P[Oic]ICIPD-NH2
modifications: disulfide 3-11; N-terminus assumed
SMILES: CC[C@H](C)[C@H](NC(=O)[C@H](C)N)C(=O)N[C@H]1CSSC[C@@H](C(=O)N[C@H](C(=O)N2CCC[C@H]2C(=O)N[C@@H](CC(=O)O)C(N)=O)[C@@H](C)CC)NC(=O)[C@H]([C@@H](C)CC)NC(=O)[C@@H]2C[C@@H]3CCCC[C@@H]3N2C(=O)[C@@H]2CCCN2C(=O)[C@H](CC(C)(C)C)NC(=O)[C@H](CO)NC(=O)[C@H](CCCNC(=N)N)NC(=O)[C@H](CO)NC1=O
B5: Example 230: (Abu)-IC+SRSLPPIC+IPD-NH2 (peptide)
peptide: [Abu]ICSRSLPPICIPD-NH2
modifications: disulfide 3-11; N-terminus assumed
SMILES: CC[C@H](N)C(=O)N[C@H](C(=O)N[C@H]1CSSC[C@@H](C(=O)N[C@H](C(=O)N2CCC[C@H]2C(=O)N[C@@H](CC(=O)O)C(N)=O)[C@@H](C)CC)NC(=O)[C@H]([C@@H](C)CC)NC(=O)[C@@H]2CCCN2C(=O)[C@@H]2CCCN2C(=O)[C@H](CC(C)C)NC(=O)[C@H](CO)NC(=O)[C@H](CCCNC(=N)N)NC(=O)[C@H](CO)NC1=O)[C@@H](C)CC
B6: Example 236: (Orn)-IC+SRSLPPIC+I-NH2 (peptide)
peptide: [Orn]ICSRSLPPICI-NH2
modifications: disulfide 3-11; N-terminus assumed
SMILES: CC[C@H](C)[C@H](NC(=O)[C@@H]1CSSC[C@H](NC(=O)[C@@H](NC(=O)[C@@H](N)CCCN)[C@@H](C)CC)C(=O)N[C@@H](CO)C(=O)N[C@@H](CCCNC(=N)N)C(=O)N[C@@H](CO)C(=O)N[C@@H](CC(C)C)C(=O)N2CCC[C@H]2C(=O)N2CCC[C@H]2C(=O)N[C@@H]([C@@H](C)CC)C(=O)N1)C(N)=O

Bridge positions count the residues as written; N and C are the ends. Square brackets hold non-standard residues; d marks the D form. Ends that are not written are not given here. Oic = O=C(O)[C@@H]1C[C@@H]2CCCC[C@@H]2N1; Phe(2-Cl) = N[C@@H](Cc1ccccc1Cl)C(=O)O; tBuAla = CC(C)(C)C[C@H](N)C(=O)O; Chg = N[C@H](C(=O)O)C1CCCCC1; NMeC = CN[C@@H](CS)C(=O)O; Orn = NCCC[C@H](N)C(=O)O; Abu = CC[C@H](N)C(=O)O; Sar = CNCC(=O)O

The target of the assay is T1, recombinant rat MASP1 active protease (amino acids 302-704, C-terminal His Tag) (rat, UniProt Q8CHN8 302-704).
T1 sequence: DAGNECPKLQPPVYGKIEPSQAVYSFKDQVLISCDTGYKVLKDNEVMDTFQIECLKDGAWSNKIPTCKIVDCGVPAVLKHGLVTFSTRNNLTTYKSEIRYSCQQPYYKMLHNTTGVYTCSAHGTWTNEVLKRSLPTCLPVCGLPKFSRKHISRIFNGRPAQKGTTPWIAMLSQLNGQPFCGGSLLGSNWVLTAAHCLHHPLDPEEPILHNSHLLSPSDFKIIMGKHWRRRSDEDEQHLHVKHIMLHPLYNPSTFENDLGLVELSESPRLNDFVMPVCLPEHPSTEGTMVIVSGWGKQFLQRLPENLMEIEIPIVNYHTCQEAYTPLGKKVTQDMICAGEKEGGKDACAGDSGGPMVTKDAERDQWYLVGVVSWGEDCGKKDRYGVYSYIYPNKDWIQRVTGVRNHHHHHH
Nature of the assay: cell-based or functional assay.
B1: the “rat MASP1 IC50” value is 230 nM. In the case of [Sar]ICSRSLPPICIPD-NH2 (disulfide 3-11; also: HCl salt) [Example 228: ((N-Me)G)-IC+SRSLPPIC+IPD-NH2 (HCl salt)], the “rat MASP1 IC50” value was found to be 260 nM.

As for B2, the “rat MASP1 IC50” value was found to be 38 nM.

Turning to B3, the “rat MASP1 IC50” value was determined as 150 nM. For B4, the “rat MASP1 IC50” value amounted to 78 nM. Turning to B5, the “rat MASP1 IC50” value came to 370 nM.

For the molecule B6, the “rat MASP1 IC50” value was determined as 890 nM.
